Reference: patent US20190247399A1, “COMBINATION OF AN ANTI-CD20 ANTIBODY, PI3 KINASE-DELTA INHIBITOR, AND ANTI-PD-1 OR ANTI-PD-L1 ANTIBODY FOR TREATING HEMATOLOGICAL CANCERS” (TG Therapeutics, Inc., priority 2016, published 2019)
Substitutions are numbered along the chain they refer to. Structures can show the parent of a compound that is named as a salt.

Legend:
[1] = oral TGR-1202 under fasted and fed conditions, pharmacokinetics; details: in vivo, 200 mg, single oral dose of 200 mg; for AUC(0-inf): read-out: AUC0-inf, Geometric LS Means; for AUC(0-t): read-out: AUC0-t, Geometric LS Means; for Cmax: read-out: Cmax, Geometric LS Means
[2] = micronized vs non-micronized TGR-1202 formulations, pharmacokinetics; details: in vivo, po, 200 mg, single oral dose of 200 mg; for AUC(0-inf): read-out: AUC0-inf, Geometric LS Means; for AUC(0-t): read-out: AUC0-t, Geometric LS Means; for Cmax: read-out: Cmax, Geometric LS Means
[3] = system: patients with relapsed and refractory hematologic malignancies; details: single agent; relapsed or refractory hematologic malignancies; cited from earlier work
[4] = target: PI3K isoforms (Human) α (Homo sapiens, UniProt P42336); assay: biochemical
[5] = target: PI3K isoforms (Human) β (Homo sapiens, UniProt P42338); assay: biochemical
[6] = target: PI3K isoforms (Human) γ (Homo sapiens, UniProt P48736); assay: biochemical
[7] = system: patients with CLL; details: pembrolizumab alone; cited from earlier work
[8] = target: T1, PD-L1 antigen of the ForteBio affinity measurement (Example 7) (UniProt Q9NZQ7 19-238, limits assumed); assay: ForteBio BLI, IgG on AHQ sensors, 100 nM antigen, 1:1 model
[9] = target: T1, PD-L1 antigen of the ForteBio affinity …; assay: ForteBio BLI, IgG on AHQ sensors, 100 nM antigen, 1:1 model, monovalent
[10] = target: T2, PD-L1 expressed on transfected CHO cells (UniProt Q9NZQ7 19-290); assay: competitive FACS on PD-L1+ CHO cells; competitor biotin-labeled PD-1 at 1 µg/ml
T2 construct: whole, on cells; also called PD-L1+cells; PD-L-1+cells

[11] = target: T3, PD-L1 (Homo sapiens, UniProt Q9NZQ7); assay: Octet antibody binding kinetics
Procedure: (§1) FIGS. 2A-2C are graphs showing the binding kinetics of exemplary anti-PD-L1 antibody CTI-48 against human PD-L1 (FIG. 2A), mouse PD-L1 (FIG. 2B), and cyno PD-L1 (FIG. 2C).
(§2) Octet data analysis was used in determining affinity measurements to assess antibody binding kinetics. 2 mL of the loading sample was prepared at 20 ug/mL (default concentration) in kinetic buffer. Aliquot at least 200 uL into a black 96-well plate. Concentration ranges for the sample were based on the estimated KD of the interaction (if available). […] A 7-point dilution was made into the sample column using kinetic buffer as the sample diluent. The last well of the sample column was used as a reference well later in data analysis, should only contain kinetic buffer.
(§3) Biosensors were hydrated in kinetic buffer (lx PBS, 0.1% BSA, 0.02% Tween20, 0.05% Sodium Azide) at room temperature for 10 minutes.

[12] = target: cynoPDL1; assay: Octet antibody binding kinetics; design: species or system cyno
Procedure: as §1, §2, §3

[13] = target: T3, PD-L1; assay: ForteBio affinity measurements; details: 100 nM antigen, 1:1 binding model
Procedure: ForteBio affinity measurements were performed generally as previously described (see, e.g., Estep, P. et al., mAbs 5:270-278 (2013)). Briefly, ForteBio affinity measurements were performed by loading IgGs on-line onto AHQ sensors. Sensors were equilibrated off-line in assay buffer for 30 minutes and then monitored on-line for 60 seconds for baseline establishment. Sensors with loaded IgGs were exposed to 100 nM antigen for 5 minutes; afterwards, they were transferred to assay buffer for 5 minutes for off-rate measurement. Kinetics were analyzed using the 1:1 binding model.

[14] = system: SUDHL-1 lymphoma cells; assay: ADCC activity of anti-PD-L1 antibodies; assay type: cell-based; details: PD-L1+ lymphoma cells with primary NK cells
Procedure: Reporter bioassays were performed in order to determine antibody-dependent cell—mediates cytotoxicity (ADCC) of the disclosed anti-PD-L1 antibodies. The assays utilized SUDHL-1 lymphoma cells and donor PBMCs. Various antibodies were tested at concentrations of 1 or 3 μg/ml.
The results of this study, which are shown for exemplary anti-PD-L1 antibody CTI-48 in FIG. 3, are represented by percent cytotoxicity following a 4 hour incubation with the disclosed antibodies.

[15] = system: PD-1:PD-L1 ligation; assay: immunoblockade reporter (NFAT) assay, PD1/PD-L1 Blockade Assay Kit; assay type: cell-based; details: Jurkat PD-1 Effector cells and aAPC PD-L1 cells
Procedure: Immunoblockade assays were performed using a PD1/PD-L1 Blockade Assay Kit (Promega, CS187111) in 96 well plates. Three major events occur in the assay. Event 1: TCR-mediated NFAT activation occurs when engineered Jurkat PD-1 Effector cells and aAPC (artificial antigen presenting cell) PD-L1 cells are engaged through TCR/TCR activator interaction. Event 2: Inhibition of NFAT signal by PD-1:PD-L1 ligation when no blocking antibodies are present. Event 3: Recovery of NFAT signal by addition of anti-PD-1 or anti-PD-L1 blocking antibody.
The day before assay, 25 mL of cell recovery medium (10% FBS/F-12) was made in 50 mL conical tubes for Thaw-and-Use PD-L1 cells by adding 2.5 mL FBS to 22.5 mL F-12. One vial of Thaw-and-Use PD-L1 cells (CS187103) was removed from freezer storage and transferred to the bench on dry ice. The vial was thawed in a 37° C. water bath until cells were just thawed (about 3-4 minutes). The cell suspension was gently mixed in the vial by pipetting up and down. All the cells (0.5 mL) were transferred to a tube labeled “PD-L1 cells” containing 14.5 mL cell recovery medium, followed by gentle inversions. […]
Thaw-and-Use PD-1 Effector cells (CS187105) were transferred into the assay plates, and the plates were incubated for six hours at 37° C. in CO2 incubator. […] Luminescence was measured in a POLARstar Omega plate reader with 0.5 second integration.

[16] = target: T4, binding of PD-L1 and B7.1 (Homo sapiens, UniProt Q9NZQ7); assay: PD-L1/B7.1 inhibitor screening assay; details: PD-L1 coated plate, B7.1-biotin
T4 construct: purchased
Excerpt: A commercially available assay kit was used to screen and profile the interaction of the disclosed antibodies and the PD-L1/B7.1 interaction. The kit came in a 96-well format with biotin-labeled B7-1 (CD80), purified PD-L1, streptavidin-labeled HRP, and assay buffer for 100 binding reactions. The kit was used to detect biotin-labeled B7.1 by streptavidin-HRP.
First, PD-L1 was coated on a 96-well plate. Next, either one of the disclosed antibodies, a positive control, a substrate control, or a blank was added to each well and incubated prior to the addition of B7.1-biotin. Finally, the plate was treated with streptavidin-HRP followed by addition of an HRP substrate to produce chemiluminescence, which can then be measured by a chemiluminescence reader.

[17] = system: IFN-γ production; assay: IFN-γ production in mixed lymphocyte reaction (MLR) cultures; assay type: cell-based; details: 4-day MLR culture, antibodies at 10 μg/mL, over control levels
Procedure: FIG. 6 is a bar graph showing the effect of the disclosed PD-L1 antibodies on IFN-γ production. Antibodies were dosed into mixed lymphocyte reaction (MLR) cultures at a concentration of 10 μg/mL. Data were normalized to vehicle control and are presented as combined mean+SEM (n=6). *p<0.05**p<0.01,***p<0.001 indicates statistical significance when compared to appropriate isotype control (hIgG1) using Ordinary one-way ANOVA with Dunnett's multiple comparison post-hoc test.
Antibodies were dosed into mixed lymphocyte reaction (MLR) cultures in order to determine the effects of the disclosed antibodies on IFN-γ production. The fold change in production of IFN-γ was determined after a 4-day MLR culture with antibodies at a concentration of 10 μg/mL. […] Further, many of the tested PD-L1 antibodies elicited a statistically significant increase in IFN-γ production, including a roughly 10-fold increase by CTI-33 and CTI-55 over control levels.

[18] = target: T3, PD-L1; details: cited from earlier work

T3 sequence (Q9NZQ7 19-290): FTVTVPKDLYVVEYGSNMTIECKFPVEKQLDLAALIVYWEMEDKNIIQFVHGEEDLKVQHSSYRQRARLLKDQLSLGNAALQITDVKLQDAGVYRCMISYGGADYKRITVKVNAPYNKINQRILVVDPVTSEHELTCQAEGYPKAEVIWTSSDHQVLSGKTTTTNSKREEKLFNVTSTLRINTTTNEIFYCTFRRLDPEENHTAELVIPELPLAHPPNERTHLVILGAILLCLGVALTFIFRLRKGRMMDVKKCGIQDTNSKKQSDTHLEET
T1 sequence (Q9NZQ7 19-238 limits assumed): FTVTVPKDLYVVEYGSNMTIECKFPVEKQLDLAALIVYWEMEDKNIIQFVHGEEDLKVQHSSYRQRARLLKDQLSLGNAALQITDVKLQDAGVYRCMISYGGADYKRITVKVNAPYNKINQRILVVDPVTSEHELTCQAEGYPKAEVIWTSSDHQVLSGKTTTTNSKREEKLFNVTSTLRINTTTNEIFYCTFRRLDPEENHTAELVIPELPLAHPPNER
Chain of PI3K isoforms (Human) α (P42336 whole entry, canonical isoform): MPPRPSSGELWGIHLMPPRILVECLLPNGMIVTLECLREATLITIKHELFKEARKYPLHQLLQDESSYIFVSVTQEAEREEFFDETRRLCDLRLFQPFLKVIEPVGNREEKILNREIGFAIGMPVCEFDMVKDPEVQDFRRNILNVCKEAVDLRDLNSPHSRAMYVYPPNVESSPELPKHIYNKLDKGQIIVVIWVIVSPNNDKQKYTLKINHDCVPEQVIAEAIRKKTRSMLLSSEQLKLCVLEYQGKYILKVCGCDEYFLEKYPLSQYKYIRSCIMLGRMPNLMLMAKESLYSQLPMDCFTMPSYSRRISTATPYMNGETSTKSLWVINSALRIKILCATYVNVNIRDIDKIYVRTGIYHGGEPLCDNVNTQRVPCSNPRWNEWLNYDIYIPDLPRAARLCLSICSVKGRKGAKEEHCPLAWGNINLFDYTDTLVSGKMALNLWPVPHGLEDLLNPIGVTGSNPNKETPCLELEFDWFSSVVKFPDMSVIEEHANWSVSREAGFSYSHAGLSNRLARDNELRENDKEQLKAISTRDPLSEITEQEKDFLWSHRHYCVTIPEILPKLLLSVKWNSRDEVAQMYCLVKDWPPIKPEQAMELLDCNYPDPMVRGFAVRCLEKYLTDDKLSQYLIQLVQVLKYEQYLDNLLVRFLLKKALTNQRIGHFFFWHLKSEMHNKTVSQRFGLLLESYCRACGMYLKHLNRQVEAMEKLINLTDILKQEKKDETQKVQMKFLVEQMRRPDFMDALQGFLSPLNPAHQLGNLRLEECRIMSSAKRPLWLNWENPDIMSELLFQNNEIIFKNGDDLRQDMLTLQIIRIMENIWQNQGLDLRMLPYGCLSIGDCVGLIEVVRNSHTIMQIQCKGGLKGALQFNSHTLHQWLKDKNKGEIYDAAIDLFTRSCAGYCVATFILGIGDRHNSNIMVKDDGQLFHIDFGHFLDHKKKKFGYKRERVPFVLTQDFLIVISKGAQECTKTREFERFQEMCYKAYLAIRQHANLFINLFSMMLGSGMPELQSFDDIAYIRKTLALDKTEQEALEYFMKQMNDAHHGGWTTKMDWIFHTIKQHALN
Chain of PI3K isoforms (Human) α (P27986 whole entry partner, canonical isoform): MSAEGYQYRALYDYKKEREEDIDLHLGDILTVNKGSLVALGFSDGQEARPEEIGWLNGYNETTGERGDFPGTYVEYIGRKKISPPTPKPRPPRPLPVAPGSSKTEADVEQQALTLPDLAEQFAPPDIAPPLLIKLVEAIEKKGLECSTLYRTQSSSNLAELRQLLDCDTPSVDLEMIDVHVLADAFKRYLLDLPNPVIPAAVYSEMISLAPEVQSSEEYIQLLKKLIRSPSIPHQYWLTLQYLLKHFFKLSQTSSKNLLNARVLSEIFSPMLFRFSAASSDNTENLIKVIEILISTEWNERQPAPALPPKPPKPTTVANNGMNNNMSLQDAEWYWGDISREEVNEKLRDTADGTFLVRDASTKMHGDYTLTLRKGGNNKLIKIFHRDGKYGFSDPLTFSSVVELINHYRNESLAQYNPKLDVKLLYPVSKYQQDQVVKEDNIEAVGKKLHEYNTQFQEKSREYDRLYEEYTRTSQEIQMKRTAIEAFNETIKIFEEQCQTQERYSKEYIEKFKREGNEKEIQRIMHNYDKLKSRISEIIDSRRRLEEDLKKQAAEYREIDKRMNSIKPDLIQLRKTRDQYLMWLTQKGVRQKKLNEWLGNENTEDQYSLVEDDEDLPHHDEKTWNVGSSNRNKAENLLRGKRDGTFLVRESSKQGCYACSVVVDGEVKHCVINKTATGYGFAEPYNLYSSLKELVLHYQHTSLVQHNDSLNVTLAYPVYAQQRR
Chain of PI3K isoforms (Human) β (P42338 whole entry, canonical isoform): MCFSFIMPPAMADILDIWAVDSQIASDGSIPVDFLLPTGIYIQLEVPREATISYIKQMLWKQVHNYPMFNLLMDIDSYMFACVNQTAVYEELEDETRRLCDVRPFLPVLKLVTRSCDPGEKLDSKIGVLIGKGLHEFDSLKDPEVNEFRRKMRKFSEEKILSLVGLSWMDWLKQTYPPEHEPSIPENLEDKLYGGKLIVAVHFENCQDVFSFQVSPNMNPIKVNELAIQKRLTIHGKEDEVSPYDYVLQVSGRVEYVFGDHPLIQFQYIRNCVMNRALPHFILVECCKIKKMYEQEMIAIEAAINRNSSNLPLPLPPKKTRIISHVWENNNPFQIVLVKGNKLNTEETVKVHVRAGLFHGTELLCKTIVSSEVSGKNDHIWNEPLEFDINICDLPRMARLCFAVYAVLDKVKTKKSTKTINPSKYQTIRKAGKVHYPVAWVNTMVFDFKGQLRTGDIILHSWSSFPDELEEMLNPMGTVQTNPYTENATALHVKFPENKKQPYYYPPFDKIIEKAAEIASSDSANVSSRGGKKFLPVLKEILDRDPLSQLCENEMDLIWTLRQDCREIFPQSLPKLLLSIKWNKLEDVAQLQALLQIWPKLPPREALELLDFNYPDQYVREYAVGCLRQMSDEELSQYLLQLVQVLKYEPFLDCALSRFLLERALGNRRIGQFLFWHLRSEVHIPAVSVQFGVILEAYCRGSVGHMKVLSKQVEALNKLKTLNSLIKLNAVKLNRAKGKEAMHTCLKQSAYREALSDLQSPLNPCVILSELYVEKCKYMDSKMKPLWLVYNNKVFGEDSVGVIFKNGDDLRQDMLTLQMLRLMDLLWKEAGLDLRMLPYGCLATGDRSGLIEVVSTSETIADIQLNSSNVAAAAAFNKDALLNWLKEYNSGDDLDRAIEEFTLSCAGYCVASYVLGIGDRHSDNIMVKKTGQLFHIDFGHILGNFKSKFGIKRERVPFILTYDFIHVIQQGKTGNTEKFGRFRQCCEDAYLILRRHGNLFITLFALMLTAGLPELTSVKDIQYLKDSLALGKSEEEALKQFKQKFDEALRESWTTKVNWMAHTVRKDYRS
Chain of PI3K isoforms (Human) β (P27986 whole entry partner, canonical isoform): as the sequence (P27986 whole entry partner, canonical isoform) above
T2 sequence (Q9NZQ7 19-290): as the sequence (Q9NZQ7 19-290) above
T4 sequence (Q9NZQ7 19-238 limits assumed): as the sequence (Q9NZQ7 19-238 limits assumed) above
Chain of PI3K isoforms (Human) γ (P48736 whole entry, canonical isoform): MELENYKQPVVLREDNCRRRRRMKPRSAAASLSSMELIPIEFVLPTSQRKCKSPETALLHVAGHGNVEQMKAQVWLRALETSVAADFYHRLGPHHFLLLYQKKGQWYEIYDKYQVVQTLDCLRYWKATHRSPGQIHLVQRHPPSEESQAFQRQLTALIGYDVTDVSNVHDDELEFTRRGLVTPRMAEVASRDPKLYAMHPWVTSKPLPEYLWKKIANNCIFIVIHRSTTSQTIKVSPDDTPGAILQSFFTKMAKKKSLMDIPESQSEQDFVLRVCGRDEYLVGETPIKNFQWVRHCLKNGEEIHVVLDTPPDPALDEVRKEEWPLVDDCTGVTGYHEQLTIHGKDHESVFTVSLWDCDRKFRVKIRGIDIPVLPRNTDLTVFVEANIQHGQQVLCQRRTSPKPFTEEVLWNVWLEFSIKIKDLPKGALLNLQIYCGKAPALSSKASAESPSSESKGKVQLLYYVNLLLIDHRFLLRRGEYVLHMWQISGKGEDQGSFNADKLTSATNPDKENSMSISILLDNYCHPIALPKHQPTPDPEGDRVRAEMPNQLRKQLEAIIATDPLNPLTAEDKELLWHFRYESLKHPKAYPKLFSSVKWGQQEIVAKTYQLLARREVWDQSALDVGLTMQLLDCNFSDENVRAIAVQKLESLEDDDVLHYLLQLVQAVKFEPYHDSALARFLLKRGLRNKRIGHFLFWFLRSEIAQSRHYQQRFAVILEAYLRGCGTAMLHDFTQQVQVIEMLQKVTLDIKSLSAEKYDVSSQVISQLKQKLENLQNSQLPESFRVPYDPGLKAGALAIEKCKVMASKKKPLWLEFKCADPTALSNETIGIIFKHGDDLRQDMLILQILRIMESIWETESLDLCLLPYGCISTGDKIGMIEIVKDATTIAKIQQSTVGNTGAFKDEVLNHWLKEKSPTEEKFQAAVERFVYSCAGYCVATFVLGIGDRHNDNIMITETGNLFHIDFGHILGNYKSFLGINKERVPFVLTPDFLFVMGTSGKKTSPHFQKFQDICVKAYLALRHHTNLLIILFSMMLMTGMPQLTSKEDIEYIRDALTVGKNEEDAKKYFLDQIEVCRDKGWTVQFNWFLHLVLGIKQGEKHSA

Work on `CC(C)Oc1ccc(-c2nn([C@@H](C)c3oc4ccc(F)cc4c(=O)c3-c3cccc(F)c3)c3ncnc(N)c23)cc1F` [TGR-1202, (S)-2-(1-(4-amino-3-(3-fluoro-4-isopropoxyphenyl)-1H-pyrazolo[3,4-d]pyrim-idin-1-yl)ethyl-6-fluoro-3-(3-fluorophenyl)-4H-chromen-4-one p-toluenesulfonic acid (PTSA) salt] yielded an AUC(0-inf) ([1]; Fasting) of 8390 ng·h/mL, an AUC(0-t) ([1]; Fasting) of 6030 ng·h/mL and a Cmax ([1]; Fasting) of 177 ng/mL. It also gave an AUC(0-inf) ([1]; Fed) of 14000 ng·h/mL, an AUC(0-t) ([1]; Fed) of 9690 ng·h/mL and a Cmax ([1]; Fed) of 483 ng/mL. The AUC(0-inf) ([2]; Micronized Formulation) was 12400 ng·h/mL, the AUC(0-t) ([2]; Micronized Formulation) was 9440 ng·h/mL and the Cmax ([2]; Micronized Formulation) was 372 ng/mL. It also gave an AUC(0-inf) ([2]; Non-Micronized Formulation) of 7720 ng·h/mL, an AUC(0-t) ([2]; Non-Micronized Formulation) of 5910 ng·h/mL and a Cmax ([2]; Non-Micronized Formulation) of 166 ng/mL. For the same molecule, the hepatic toxicity [3] was “no reported hepatic toxicity”, the tolerability [3] was “well-tolerated” and the IC50 [4] was greater than 10000 nM. It also gave an IC50 [5] of 1120 nM and an IC50 [6] of 1060 nM.

In the case of “pembrolizumab: humanized monoclonal IgG4 kappa antibody directed against PD-1”, the ORR [7] is given as 0% and the “median PFS” value [7] is given as 2.4 months.

B1: CTI-07 (antibody, V domains shown)
VH: EVQLVQSGGEVKKPGASVKVSCKASGYTLSSHGITWVRQAPGQGLEWMGWISAHSGHASNAQKVEDRVTMTTDTSTNTAYMELRSLTADDTAVYYCARVHAALYYGMDVWGQGTLVTVSS
VL: LSVLTQPPSVSVAPGQTARITCGGNNIGSKGVHWYQQKPGQAPVLVVYDDSDRPSGIPERFSGSNSGNTATLTISRVEAGDEADYYCQVWDSSSDHWVFGGGTKLTVL
Molecule B1 has a koff [8] of 0.0392 s⁻¹, a kon [8] of 492000 M⁻¹ s⁻¹ and a Kd [9] of 79.7 nM.

B2: CTI-57 (antibody, V domains shown)
VH: B1 VH with H100W, A101R, Y105H
VL: B1 VL
In the case of B2, the koff [8] is reported as 0.00045 s⁻¹, the kon [8] is reported as 520000 M⁻¹ s⁻¹ and the Kd [9] is reported as 0.86 nM.

B3: CTI-58 (antibody, V domains shown)
VH: B1 VH with Y105H
VL: B1 VL
Molecule B3 has a koff [8] of 0.0111 s⁻¹, a kon [8] of 461000 M⁻¹ s⁻¹ and a Kd [9] of 24.1 nM. The IC50 [10] was 3.46 µg/mL.

B4: CTI-48: fully human anti-PD-L1 IgG1; HCDR1-3 SEQ ID NO: 11, 19, 27; LCDR1-3 SEQ ID NO: 31, 33, 35 (antibody, chains of the INN, looked up, V domains shown)
VH: EVQLVQSGAEVKKPGSSVKVSCKASGGTFSRSAISWVRQAPGQGLEWMGVIIPAFGEANYAQKFQGRVTITADESTSTAYMELSSLRSEDTAVYYCARGRQMFGAGIDFWGQGTLVTVSS
VL: NFMLTQPHSVSESPGKTVTISCTRSSGSIDSNYVQWYQQRPGSAPTTVIYEDNQRPSGVPDRFSGSIDSSSNSASLTISGLKTEDEADYYCQSYDSNNRHVIFGGGTKLTVL
For B4, the Kd [11] was 0.847 nM, the kdis [11] was 0.00061 L/s and the kon [11] was 7.20E+05 l/Ms. The Kd [12] was 0.555 nM, the kdis [12] was 0.000635 L/s and the kon [12] was 1.14E+06 l/Ms. For the same molecule, the koff [13] was 0.000633 s⁻¹, the kon [13] was 768000 M⁻¹ s⁻¹ and the Kd ([13]; read-out: IgG KD (M) Monovalent) was 8.24e-10 M. For the same molecule, the ADCC activity [14] was “exhibits ADCC activity”, the “EC50, recovery of NFAT signal” value [15] was 0.0775 µg/mL and the “IC50 for binding inhibition” value [16] was 0.1816 µg/mL. The “fold change in production of IFN-γ” value [17] was “comparable response to a clinical control mAb” and the “binding affinity for PD-L1” value [18] was “sub-nanomolar”.
